Measurements taken from the supplement of paper PMC12042874.
± gives the uncertainty stated by the source.

test: amyloid nucleation score (Sup35N fusion, yeast selection) (log enrichment); library NNK2; higher = more nucleation; inactive = no reads after selection
Procedure, shortened: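 Growth for 7 days at 30°C on medium lacking adenine and uracil followed a 24-hour induction with 100 μM copper sulfate of psi-negative yeast expressing peptides of 20 random codons fused to Sup35N. Input and output plasmid inserts were sequenced with Illumina, and sequences with under 100 input reads were excluded. Nucleation score is the DiMSum log enrichment of output over input reads, centred on the mode score of non-aggregating sequences.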

Substance	amyloid nucleation score
TFFYMRFPGFLFSNSSNAW	1.47 ± 0.24
KSLDFR	0.493 ± 0.46
LMFWGCSGLRWLVVLSDNKA	3.8 ± 0.097
YLYSPLVMSSHYMLFT	5.125 ± 0.048
GLHEVR	0.042 ± 0.65
YWSRRAYCFCSAFFYNTGFF	1.53 ± 0.19
MVWSSRDS	-0.548 ± 0.54
SKYLCRICDPMHLNLFCRWQ	4.11 ± 0.059
GSKGIRRYCLTIFVSPVQSA	0.895 ± 0.81
DGGVYTNINIFGCLVGFGGW	8.006 ± 0.026
VGYIMYIYDGYRVVFVGYYR	0.217 ± 0.65
CRLCSGLREMQPIRLM	0.77 ± 0.51
KYSIGTETVHGCLQPLCPAH	-0.095 ± 0.46
VGFGVFVV	0.213 ± 0.24
LCNGKAPCFKLCIRCLVGLW	2.82 ± 0.13
SWTCHGGNLYS	0.222 ± 0.8
YCCGGRIRKSRLINFYVTWS	-0.046 ± 0.5
KYGNFVFTFLLINPF	inactive
SFLTYKARTMSSKLVKSIML	-0.563 ± 0.76
LIFYIVNHECINGRYALVGY	0.448 ± 0.62
LMHWV	-0.94 ± 0.38
FKIAGRI	inactive
LVALVLPGRINENKYVCGD	-0.588 ± 0.49
VSTKVGSSYEVVGYKVSHFG	-0.291 ± 0.76
SFNEMILHLIPRSCSLKKYI	-0.441 ± 0.28
MCTAFSDNHHTRTYPAPKSH	0.196 ± 0.46

Substance	amyloid nucleation score
HSFIGSRIVSFGFDVRGRWA	4.91 ± 0.059
LLSRPTGQLVVPSQGLHFCY	0.242 ± 0.61
IVYLWRNRWVDLADYLLHVM	0.313 ± 0.29
IRQFDIDITNARNKG	-1.62 ± 0.62
CRRENRCNRWFQ	-0.602 ± 0.61
SKMICPHYK	5.69 ± 0.071
TLYYIVRHQICANFYRMYNG	inactive
HNSCVSITSKLQCPLRTVSG	0.252 ± 0.65
ASAAAHVRIYQMIFVFERQL	0.001 ± 0.48
WTYPLC	-0.744 ± 1.1
SGLGGGFFSIVCYTHISVRE	-0.069 ± 0.55
TTLRCHLIESKWGYVRRLTW	4.33 ± 0.088
CRRVIAESFYDTSLSCSAVG	0.877 ± 0.47
HIFVVGMDRSVVSRSVEP	inactive
IIDYFSN	-0.953 ± 1.1
RHRRHLNHYAPTSSMIWTYS	0.258 ± 0.65
KYSTISRCAYSRIDVCGKKK	0.488 ± 0.33
IDKGSKVFTGLGLLFCSKYF	7.2 ± 0.074
AFCMDYAAQSAVTRSRDSCS	0.909 ± 0.53
SCYDVCPLCSHCRIGTKM	1.92 ± 0.2
CSFYRSWVLTNWSANVVFTW	-0.217 ± 0.39
TWVGWS	-0.841 ± 0.79
FTTFRR	-0.854 ± 0.55
SKHWTCS	0.426 ± 0.57
SNKTIYKLFRIISPGYFGSS	-1.16 ± 1
SLDFAFRFFSICVICGQNAR	4.76 ± 0.082

Substance	amyloid nucleation score
TGPIWLCYACAWTNTYTPAE	9.357 ± 0.055
PASISLNFS	1.58 ± 0.22
PSFMLHTCLFSHGYYILCTG	0.005 ± 0.3
GACVAKATF	0.616 ± 0.19
NYWRDGQNDLGWLSLANFFK	inactive
RFAMFMVVRWGWDHKYEFLR	0.353 ± 0.33
PSFTLMDVFRI	0.701 ± 0.26
TSRKTEFQPFAGSICLYMGI	0.18 ± 0.63
INFYIDIWISIRREGFAFRP	1.97 ± 0.25
GVSVV	inactive
SNNMFWFLNYYVGIYMWISP	-1.21 ± 0.75
YCPDLLHYHL	0.256 ± 0.21
RHHGVRIYMRNFGNVYVYIR	3.85 ± 0.11
MLCRMSAFRLGMRYDTRFLL	-0.064 ± 1.1
SRACRFTFD	0.49 ± 0.42
PYRPHYAAVLRLAR	0.08 ± 0.33
NGGINNSWWGLIFLNLWPTI	-0.592 ± 0.79
HELAIISN	2.97 ± 0.17
PYYTIVMFAFYGLLTVRMGI	0.706 ± 0.4
LIGCPLVDFTLYLCS	inactive
TGRGAHFHRI	-0.24 ± 0.42
VLILNQE	inactive
YFYNGWRERARSEQCNHRT	0.441 ± 0.43
EMLFWVVGTMDVDWMPG	0.508 ± 0.57
GASPWPHTTMIFISILSNCV	3.37 ± 0.11
AVEQWQ	1.58 ± 0.37

Substance	amyloid nucleation score
WLPMYL	0.194 ± 0.26
CALSVVTIHFCHTRAPGTPL	3.65 ± 0.082
EDSPPFWGVVWPFTRNNDRK	1.11 ± 0.52
NCSLCFENGMAYFCILIEGV	5.645 ± 0.043
GLLAPLSSCLCVRDFVGLKA	-0.187 ± 0.3
GYFAYRVICNVVGDTGFSLA	-0.06 ± 1.1
YLLPSVTSVTY	0.993 ± 0.29
QIVIWVRLYFNVFSRSRSRV	1.05 ± 0.36
VHLNTFATFMGWLTDSWLGV	inactive
KSSNHITRFRSHSMETSRMV	inactive
LFERLELFWYNEGHIMGFGL	3.42 ± 0.049
SFYVNMSSFFRSLEEV	inactive
MLCRYVVVQGLKVNMGHVFC	7.567 ± 0.065
PFRSS	-0.415 ± 0.36
FMTVSDTMFHRIVASPQVPA	0.87 ± 0.32
SWITPMRHLFSNHSLGLNAY	-0.298 ± 0.43
EDVDICRHFYRGVVNNGYQR	0.328 ± 0.57
NTANKFSLFKTGMVWVSFFT	2.88 ± 0.099
IHWGLIIGSCRF	1.56 ± 0.27
NYYQR	0.025 ± 1.1
YSVSVRLA	-0.553 ± 0.63
SCTWRRGFSSQVKYMNRQSI	0.989 ± 0.13
EYSNFVTNEYEWIVGPTWSS	6.317 ± 0.026
RLYVTSYIY	3.26 ± 0.098
WKALAS	1.74 ± 0.11
FIADIVYLMNFGEIWG	4.68 ± 0.1

Substance	amyloid nucleation score
WQSAEEWMLPYGVNMVVSWA	0.483 ± 0.46
FGRWHYLQRGFKRSGVHFNR	inactive
RMLLKLTHFALSVKGMQSRY	0.417 ± 0.38
YFKYNVYIT	1.3 ± 0.23
TYVHDPGFPLWLDMAKRFGL	0.581 ± 0.5
MMGLGKCR	1.36 ± 0.33
SGSRVYFQTPN	inactive
WERMFRPHIFVLFSSGQLSS	5.01 ± 0.052
RCRILA	2.51 ± 0.1
GSCSEHTKLLI	-0.455 ± 0.37
CWFSVYNTLVGCNLVPTKGD	6.666 ± 0.065
PCGLIV	0.22 ± 0.63
VTLSGYRVPLTLWDFGRCLC	-0.565 ± 0.35
SVKIWCFIWEFPCFMLFRAL	-0.168 ± 1.1
SHLTNDVY	0.614 ± 0.43
KHSDSTGARQWGNNVYKLDD	0.366 ± 0.2
RMPGWY	inactive
IYGLYG	0.515 ± 0.51
RIENFVWC	-0.688 ± 0.63
FRLPNVLRDGSA	1.41 ± 0.41
GGTIKALYNSSGTRRMSKLR	-0.224 ± 0.2
HNGVCSSRARVSLWAGRCWK	0.742 ± 0.22
SLEGLSCFTLANCLLR	0.288 ± 0.24
RCRHLLSMPLPVSFEMDGRG	2.85 ± 0.099
SLLSWRFVFCCMEYRVFLVV	inactive
INHDFQTHVL	0.154 ± 0.65
